Results reported in article doi:10.1101/2021.02.17.431492 (bioRxiv, 2021).

B1: DH1041 (ACE2 binding site-targeting RBD neutralizing antibody) (antibody, V domains shown)
VH: EVQLVESGGGLVQPGGSLRLSCAASGVTFSSYWMSWVRQAPGKGLEWVANIRQDGSEKYSVDSVKGRFTISRDNAKNSLYLQMNSLRAEDTAVYYCARARRADNSGYYGFHFDCWGQGTLVTVSS
VL: QSVLTQPPSVSGAPGQRVTISCTGSSSNIGAGYDVHWYQQLPGTAPKLLIYGNNNRPSGVPDRFSDSKSGTSASLAITRLQAEDEADYYCQSYDSSLSGWVFGGGTKLTVL
B2: DH1047 antigen binding fragment (Fab) (Fab, V domains shown)
VH: QVQLVQSGAEVKKPGASVQVSCQASANTFTNHYIHWVRQAPGQGLEWMGIIYPTGGNTIYAQGFQGRVTMTRDTSLNTIYLELSSLRSEDTAVYYCARDVRVDDSWSGYDLLSGGTYFDYWGQGTLVTVSS
VL: not shown

How the values were obtained:
[1] = molecular target: SARS-CoV-2 RBD sortase A conjugated nanoparticle (RBD-scNP) (SARS-CoV-2, Wuhan strain (RBD moiety), UniProt P0DTC2); experiment: BLI
[2] = molecular target: monomeric SARS-CoV-2 receptor binding domain (RBD) (SARS-CoV-2, UniProt P0DTC2); experiment: SPR

Row | Binder | binding result [1] | Kd [2]
1 | B1 | binds | –
2 | B2 | – | < 0.02 nM
